Results published in PMC12207370, “Macrocyclic Peptide Probes for Immunomodulatory Protein CD59: Potent Modulators of Bacterial Toxin Activity and Antibody‐Dependent Cytotoxicity” (Angewandte Chemie (International Ed. in English), 2025).

Molecular target: T1, biotinylated CD59 (Homo sapiens, UniProt P13987)
T1 construct: Recombinant soluble human CD59 with an additional C-terminal cysteine residue
T1 sequence (P13987 26-102 limits assumed): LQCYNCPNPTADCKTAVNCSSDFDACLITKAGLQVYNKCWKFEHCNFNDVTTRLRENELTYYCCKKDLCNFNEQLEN
Assay: mRNA-display cyclic peptide screen against CD59-biotin, NGS abundance after 6th selection round
Conditions: for Percentage Seq I: counts normalised by total counts of sample Seq I; for Percentage Seq I / Percentage Seq II: percentage of the pool; for Percentage Seq I / Percentage Seq II / Percentage Average / Percentage of the pool, averaged across the two sequencing samples / Percentage of the pool, Seq I / Percentage of the pool, Seq II: sheet R6; for Percentage Seq II: counts normalised by total counts of sample Seq II; for Percentage Average: percentage of the pool averaged across the two sequencing samples; for Counts Seq I / Counts Seq II: raw NGS counts of peptide sequence; for Counts Seq I: sequencing sample Seq I; for Counts Seq I / Counts Seq II / Counts (raw counts for peptide sequence), Seq I / Counts (raw counts for peptide sequence), Seq II: sheet R6 (6th selection round); for Counts Seq II: sequencing sample Seq II; for Counts (raw counts for peptide sequence), Seq I: NGS sample Seq I; for Counts (raw counts for peptide sequence), Seq II: NGS sample Seq II; for Percentage of the pool, averaged across the two sequencing samples: average of Seq I and Seq II; for Percentage of the pool, Seq I: counts normalised by total counts of NGS sample Seq I; for Percentage of the pool, Seq II: counts normalised by total counts of NGS sample Seq II
From the text: To discover novel non‐protein CD59 ligands, we screened a library of 10^12 cyclic peptides against CD59 using mRNA‐display (Figure 2a).^[ [23], [24], [25], [26], [27], [28], [29] ^] Briefly, an mRNA library was designed in which the start codon was reprogrammed from Met to N‐chloroacetyl‐D‐Tyr (ClAc‐D‐Tyr), followed by 10–12 randomly encoded natural amino acids, a Cys residue, a (GlySer)3 linker, and a stop codon. […] The total library diversity was 1.51 × 10^13 molecules, comprising 5.02 × 10^12 molecules of each macrocycle size, covering a subset of the maximum theoretical diversity of this library design. Following in vitro translation, ClAc‐D‐Tyr spontaneously reacts with either the C‐terminal Cys or a Cys in the random region, yielding macrocyclic thioether peptides. Hits from the library were identified through iterative enrichment and amplification against biotinylated CD59, then immobilized on streptavidin beads. Fifteen hit sequences (CP‐01 to CP‐15), enriched with abundance >1% relative to the total pool of recovered binders after the 6th round of selection, were synthesized by solid phase peptide synthesis (SPPS), without the (Gly‐Ser)3 linker.
Figure 2 Discovery of macrocyclic peptide ligands with nanomolar CD59 affinity using mRNA display. a) The selection process. PCR = polymerase chain reaction, SPPS = solid phase peptide synthesis. b) Table showing details of the peptides with nanomolar affinity for CD59 as well as the binding affinity of the lead inhibitor of CD59, rILYd4. K D values are presented as the average of three technical replicates ± SEM. Structures of all peptides and SPR sensograms are presented in Figures S1 and S2. *indicates the presented sequences are the variable regions of these cyclic peptides; each is flanked by an N‐terminal Ac‐D‐Tyr cyclized to a C‐terminal Cys. R6 abundance (%) is defined as (the given number of NGS reads for a given sequence/the total number of reads of unique sequences observed in NGS)*100 following the 6th selection round. c) Representative sensogram of the interaction between CP‐06 with immobilized CD59 by SPR analysis. Inset showing the equilibrium binding curve of CP‐06 to CD‐59. Below in the box are the association and dissociation rate constants of CP‐06. Concentrations are plotted in descending order from 800‐3.1 nM in line with their position on the legend. […] (nM)'; the box with Kon/Koff has no label of its own / ILYd4: the label may be cut off at the left edge (possibly 'rILYd4') / CP-02, KD: 15.3 ± 0.2, small print, 3 or 8 uncertain / CP-03, KD: 23.4 ± 0.7, small print / CP-06, KD: 11.3 ± 0.0, small print, 3 or 8 uncertain / CP-13, KD: 10.8 ± 0.7, small print, 8 or 6 uncertain / ILYd4, KD: 48.3 ± 1.1, small print, 8 and 3 uncertain
The mRNA-display cyclic peptide screen was performed against CD59-biotin by T.E.M: DNA templates for transcription were generated by PCR in a similar manner to that previously described.^2 RNA oligonucleotides were transcribed from the DNA templates using T7 RNA polymerase and purified by phenol/chloroform extraction followed by ethanol precipitation. Oligonucleotide concentrations were determined spectroscopically by absorbance at 260 nm. In the first selection round a 1:1:1 molar ratio of NNK10/NNK11/NNK12 was used. The procedure for selection rounds 2-6 is described below; round 1 was conducted at twice the scale.
RNA encoding for the peptide library ligated to a puromycin-modified oligonucleotide was […] (final [RNA] = 2.5 µM) using a customised PURE express kit (lacking release factor 1 and methionine, supplemented with […] initiator tRNA acylated with N-chloroacetyl-d-tyrosine prepared as previously described)^3 in a final volume of 5.6 µL for 1 hour at 37 °C.
This mixture was incubated at 42 °C for 1 hour before being diluted to 500 µL with PBS (10 mM Na-PO4 pH 7.4, 2.7 mM KCl, 137 mM NaCl) and 0.5 µL taken for subsequent use in qPCR. […]

Row | Sequence | Percentage Seq I [%] | Percentage Seq II [%] | Percentage Average [%] | Counts Seq I | Counts Seq II | Counts (raw counts for peptide sequence), Seq I | Counts (raw counts for peptide sequence), Seq II | Percentage of the pool, averaged across the two sequencing samples [%] | Percentage of the pool, Seq I [%] | Percentage of the pool, Seq II [%]
1 | RIGTSTCPFKFS | 0.024 | 0.023 | 0.024 | 106 | 10 |  |  |  |  | 
2 | SAWGSRQIQYY | 0.059 | 0.051 | 0.055 | 257 | 22 |  |  |  |  | 
3 | GYLNECHTLYTL | 0.024 | 0.028 | 0.026 | 105 | 12 |  |  |  |  | 
4 | CFSRRLTEGAI |  |  |  |  |  | 41 | 5 | 0.010 | 0.009 | 0.012
5 | CLRRHVTASDV | 0.040 | 0.023 | 0.031 | 174 | 10 |  |  |  |  | 
6 | FVTGNRDHTRV |  |  |  |  |  | 35 | 5 | 0.010 | 0.008 | 0.012
7 | AISGGRDYTRG |  |  |  |  |  | 43 | 6 | 0.012 | 0.010 | 0.014
8 | WRDRFGQCVL |  |  |  |  |  | 27 | 7 | 0.011 | 0.006 | 0.016
9 | CFSARAVLDGGW |  |  |  |  |  | 59 | 3 | 0.010 | 0.013 | 0.007
10 | SAWGNRRIQYY | 0.034 | 0.037 | 0.035 | 148 | 16 |  |  |  |  | 
11 | FVRGDPYSVLG | 0.057 | 0.049 | 0.053 | 251 | 21 |  |  |  |  | 
12 | FVRGDLYSVLS |  |  |  |  |  | 43 | 4 | 0.010 | 0.010 | 0.009
13 | CFYTRIDAFST | 0.081 | 0.079 | 0.080 | 354 | 34 |  |  |  |  | 
14 | HCWVRGSRNYS |  |  |  |  |  | 46 | 5 | 0.011 | 0.011 | 0.012
15 | CYGGRTFIYAWP | 0.060 | 0.072 | 0.066 | 263 | 31 |  |  |  |  | 
16 | WRDRLDQCVL | 0.019 | 0.021 | 0.020 | 85 | 9 |  |  |  |  | 
17 | CYGGRAFIYAWS | 0.042 | 0.044 | 0.043 | 185 | 19 |  |  |  |  | 
18 | FVRGDLNSVLG |  |  |  |  |  | 69 | 5 | 0.014 | 0.016 | 0.012
19 | FISGSRSWRKQ | 0.036 | 0.023 | 0.030 | 159 | 10 |  |  |  |  | 
20 | STYNDFFRVPC | 0.149 | 0.200 | 0.174 | 650 | 86 |  |  |  |  | 
21 | CFKHRLGTDSA | 0.097 | 0.086 | 0.091 | 423 | 37 |  |  |  |  | 
22 | TAWGNRQIQYY |  |  |  |  |  | 73 | 7 | 0.016 | 0.017 | 0.016
23 | QWNRWYGMDEL | 0.284 | 0.260 | 0.272 | 1243 | 112 |  |  |  |  | 
24 | FVTGNRDHTRE |  |  |  |  |  | 33 | 7 | 0.012 | 0.00754 | 0.016
25 | VAHGSKKSQFW | 0.088 | 0.104 | 0.096 | 386 | 45 |  |  |  |  | 
